Assay in all cases: EIA, captured mAb
The target in test [1] is biotinylated HCV core peptide 134-154 (Peptide 1) (HCV-1).
For test [2], the target named is biotinylated HCV core peptide 141-161 (Peptide 2) (HCV-1).
Test [3] addresses biotinylated HCV core peptide 151-171 (Peptide 3) (HCV-1).

B1: HCV 208B-672 (antibody, V domains shown)
VH: EVKLVESGGSLVQPGGSLKLSCAASGFNFNTYAMSWVRQTPEKRLEWVAYISNGGGNTYYVDTVKGRFTISRDNAKNTLYLRMSSLKSEDTAMYYCARHGLYWGYSMDYWGQGTSVTVSS
VL: DIQMTQSPSSLSASLGERVSLTCRASQDIGGSINWLQQEPDGTIKRLIYATSSLDSGVPKRFSGSRSGSDYSLTISSLESEDFVDYYCLQYASSPPTFGGGTKLEIKR
As for B1, the Reactivity (OD492) turned out to be 0.08 OD in test [1], 2.79 OD in test [2] and 0.1 OD in test [3].

B2: HCV 208B-793 (antibody, V domains shown)
VH: EVKLVESGGGLVQPGGSLKLSCAASGFTFSSYAMSWVRQTPERRLEWVTYISNGGGSTYYSDTVKGRFTFSRDNAKNTLYLQMSSLKSEDTAMYYCARHGLGRTGFASWGQGTLVTVSA
VL: DIVMTQSHKFMSTSVGDRVSITCKASQDVGTAVAWYQQKPGQSPKLLIYWASTRHTGVPDRFTGSGSGTDFTLTISNVQSEDLADYFCQQYSNYLTFGAGTKLEVKR
Regarding B2, the Reactivity (OD492) in test [1] was 0.09 OD; in test [2] it was 0.72 OD; in test [3] it was 0.09 OD.

B3: HCV 208B-327 (antibody, V domains shown)
VH: EVQLVESGGGLVKPGGSLKLSCAASGFTFSDSYMYWVRQTPDQRLEWVATISDGGSYTFYPDSVKGRFTISRDNAQNNLYLQMSSLKSEDTAMYYCASPHAGYFGWFAYWGRGTLVTVSA
VL: DIVMTQAAFSNPVTPGTSVSISCRSSKSLLHSNGITYLYWYLQKPGQSPQLLIYQMSKIASGVPDRFRSSGSGTDFTLRISRVEAADVGVYYCAQNLELPWTFGGGTKLEIKR
Regarding B3, the results for the Reactivity (OD492) in test [1], in test [2] and in test [3] were 0.07 OD, 0.05 OD and 0.49 OD, respectively.

B4: HCV 208B-281 (antibody, V domains shown)
VH: QGQLQQSGAELVKPGASVKLSCKTSGFTFSSSYISWLKQRPGQSLEWIAWIYAGTGGTNYNQKFTDKAQLTVDTSSSTAYMQFSSLTTEDSAIYYCAISGTGFIYWGQGTLVTVSA
VL: DVLMTQTPLSLPVSLGDQASISCRSSQSLVHNNGNTYLEWFLQKPGQSPKLLIYKVSNRFSGVPDRFSGSGSGTDFTLKISRVEAEDLGVYYCFQGSHVPFTFGSGTKLEIKR
Consider B4, for which the figures for the Reactivity (OD492) in test [1], in test [2] and in test [3] were 1.48 OD, 0.16 OD and 0.12 OD, respectively.

B5: HCV 208B-515 (antibody, V domains shown)
VH: QVQLQQPGAELVKPGASLKLSCRASGYTFTSYWIHWVKQRPGQGLEWIGEIDPSDSYTNYNQKFKGKATLTVDKSSRAAYMQLSSLTSEDSAVYYCARHYYGVFDSWGQGTKLTVSS
VL: QIVFTQYPAIMSASLGERVTMTCTASSSVTSSYLHWFQQKPGSSPKLWIYSTSNPGSGVPARFSGRGSGTSYSLSISSMEAEDAATYYCLQFHRSPWTFGGGTKLEIRR
Regarding B5, the Reactivity (OD492) came to 0.51 OD in test [1], 0.13 OD in test [2] and 0.06 OD in test [3].

B6: HCV 208B-189 (antibody, V domains shown)
VH: QVHLQQSGAELAKPGASVQMSCKASGYTFTANKMHWARQRPRQGLEWIGYIDPASGYTEYNQKIKDRATLTADKSSSTAYMQLSSLTSEDSAVYYCTNFAYWGQGTLVTVST
VL: not shown
On to B6, for which the values for the Reactivity (OD492) in test [1], in test [2] and in test [3] were 0.55 OD, 0.15 OD and 3.95 OD, respectively.

B7: HCV 208B-612 (antibody, V domains shown)
VH: EVQLQQSGPELVKPGASVKMSCKASGYRFTSYVMHWVRQKPGQGLEWIGYIDPHNDDTKYSEKFRGKATLTSDKSSTTAYMELSSLTSEDSAVYYCVRYSYDRDYSPMDYWGQGTSVTVSS
VL: QIVLTQSPTLMSASPGEKVTMTCSASSTVTYIYWYQQKPGSSPRLWMYDTFNLVSGVPARFSGSRSGTSYFLTISSMEGEDAATYYCQQYSDSPYTFGGGTKLEIKR
Consider B7, for which the Reactivity (OD492) turned out to be 3.05 OD in test [1], 3.04 OD in test [2] and 0.15 OD in test [3].

B8: HCV 208B-517 (antibody, V domains shown)
VH: QVQLKQSGPGLVQPSQSLSITCTVSGFSLITHGVHWVRQSPGKGLEWLGVIWSGGSTDYNAAFISRLSISKDTSKSQVFLKMSSLQADDTAIYYCARNGGATAFDYWGQGTTLTVSS
VL: DIVMTQSPATLSVTPGDRVSLSCRASQSISDYLHWYQQKSHESPRLLIKYASQSISGIPSRFRGSGSGSHFTLSINSVEPEDVGVYYCQNGHSFPWTFGGGTKLEIKR
In the case of B8, the values for the Reactivity (OD492) in test [1], in test [2] and in test [3] were 0.1 OD, 0.41 OD and 0.7 OD, respectively.

B9: HCV 208B-1096 (antibody, V domains shown)
VH: QVQLQQSGAGLAKPGASVKMSCKASGYTFTANKMHWAKQRPGQGLEWIGYIDPSSGYTEYNHKIQYKATLTADTSSSTAYMQLSTLTFEDSAVYYCTNFAYWGQGTLVTVSA
VL: DIVMTQTPLTLSVTIGQPASISCKSSQSLLFTNGKTYLNWFLQRPGQSPKRLIYLLSKLDSGVPDRFSGSGSGTDFTLKISRVEAEDLGVYYCLQSTYFPLTFGAGTKLELKR
B9: the Reactivity (OD492) in test [1] was determined as 0.34 OD; in test [2] it was 0.13 OD; in test [3], 3.56 OD.

B10: HCV 208B-395 (antibody, V domains shown)
VH: QVQLQQSGAGLAKPGASVKMSCKASGYTFTANKMHWTKQRPGQGLEWIGYIDPSSGYTQYNHKIQDKATLTADTSSSTAYMQLSSLTFEDSAVYYCTNFAYWGQGTLVTVSA
VL: DIVLTQSPATLSVTPGDRVSLSCRASQRIYNYLHWYQQKSHESPRLLIKYASQSISGIPSRFSGSGSGTDFILTINSVETEDFGMYFCQQSNSWPLTFGAGTKLELRR
Consider B10, for which the Reactivity (OD492) in test [1] amounted to 0.54 OD; in test [2], 0.13 OD; in test [3], 3.69 OD.

B11: HCV 208B-547 (antibody, V domains shown)
VH: QVQLQQSGAELAKPGASVKMSCKASGYTFTSNKMHWAKQRPGQGLEWIGYIDPSSGYTEYNQKIKDKATLTADKSSSTAYMQLSSLTSEDSAVYYCTNFAYWGQGTLVTVSA
VL: EVVLTQSPAITAASLGQKVTITCRASSSVSYMHWYRQKSGTSPQPWIYEISTLASGVPTRFRASGSGTSYSLTISSMEAEDAAIYYCQQWNYPLTFGAGTKLELKR
Regarding B11, the results for the Reactivity (OD492) in test [1], in test [2] and in test [3] were 0.12 OD, 0.08 OD and 2.9 OD, respectively.

B12: HCV 208B-589 (antibody, V domains shown)
VH: QVQLQQSGAGLAKPGASVKMSCKASGYTFTANKMHWAKQRPGQGLEWIGYIDPSSGYTEYNHKIQDKATLTADTSSSTAYMQLSSLTFEDSAVYYCTNFAYWGQGTLVTVSA
VL: DIVMTQTPLTLSVTIGQPASISCKSSQSLLFTNGKTYLNWFLQRPGQSPKRLIYLLSKLDSGVPDRFSGSGSGTDFTLKISRVEAEDLGVYYCLQSTYFPLTFGAGTKLELKR
As for B12, the Reactivity (OD492) in test [1] is 0.27 OD; in test [2] it was 0.1 OD; in test [3] it was 2.85 OD.

B13: HCV 208B-251 (antibody, V domains shown)
VH: QLQQSGPVLVKPGASVKISCKTSGYTFTENAMHWVKQSHGKSLEWIGGVNPNNGDTIYNQKFKGKATLTVDKSSSTAFMELRSLTSEESPVYFCVRRELDFFDYWGQGTSVTVSS
VL: DIVLTQSPASLAVSLGKKATISCRASQSVSTSRYSYMHWYQQKPGHPPKLLIKYASNLESGVPARFSGSGSGTDFTLNIHPVAEEDTAAYYCQHSWEFPFTFGSGTKLEIKR
For the molecule B13, the Reactivity (OD492) amounted to 0.11 OD in test [1], 2.35 OD in test [2] and 0.41 OD in test [3].

B14: HCV 208B-560 (antibody, V domains shown)
VH: EVQLQQSGPELEKPGASVKISCKTSGYTFTEYAMHWVKQSHGMSLEWIGGINPSNGNAIYNQIFKDKATLTVDRSSSTAYMGLRSLTFGDSGVYFCVRRQLDFFDYWGQGASLTVSS
VL: DIVVTQSPASLAVSLGQRATISCRASQSVSTSRYSYLHWYQQKPGQPPKLLIKYASNLESGVPARFSGSGSGTDFTLNIHPVGEEDTATYYCQHSWEFPFTFGSGTKLEIKR
For B14, the Reactivity (OD492) in test [1] was 0.11 OD; in test [2] it was 3.9 OD; in test [3], 0.14 OD.

B15: HCV 208B-1094 (antibody, V domains shown)
VH: EVQLQQSGPELVKPGASVKISCKTSGYTFTEYAMHWMKQSHGKSLEWIGGINPTNGDTIYNQRFKDKAKLTVDRSSSTAYMELRSLTSDDSALFYCARRELDYFASWGQGTTLTVSS
VL: DIVLTQSPASLIVSLGQTATISCRASQSLSTSRFSYVHWIQQKPGQPPKLLIKYASNLESGVPVRFSGSGSGTDFTLNIHPVEEEDTATYFCQHSWEFPFTFGSGTKLKIKR
On to B15, for which the Reactivity (OD492) in test [1] was determined as 0.12 OD; in test [2], 3.28 OD; in test [3], 0.13 OD.

B16: HCV 208B-556 (antibody, V domains shown)
VH: QLQQSGPVLVKPGASVMISCKTSGYTFTENAMHWVKQSHGKSLEWIGGVNPNNGDTIFNQKFKGKATLTVDKSSSTAFMEFRSLTSEESTVYYCVRRELDFFDYWGQGTSVTVSS
VL: DIVLTQSPASLAVSLGQRATISCRASQSVSTSRYSYMHWYQQKPGQPPKLLIKYASNLESGVPARFSGSGSGTDFTLNIHPVAEEDTATYYCQHSWEFPFTFGSGTKLEIKR
In the case of B16, the Reactivity (OD492) in test [1] came to 0.13 OD; in test [2], 3.07 OD; in test [3], 0.18 OD.

B17: HCV 208B-408 (antibody, V domains shown)
VH: EVKLVESGGGLVQPGGSLRLSCASSGFTFTDYYMSWVRQPPGKALEWLGFIRNKAYGYTTEFSASVNGRFTISRDDSQSVPYLQMNTLRAEDSATYYCARVLYYDYGGFAYWGQGTLVTVST
VL: DIQMTQSPASLSASVGETVTITCRASGNIHTYLAWYQQKQGKSPQLLVYNANTLADGVPSRFSGSGSGTQFSLKINSLQPDDFGSYYCQHFWSAPWTFGGGTQLEIKR
Consider B17, for which the Reactivity (OD492) in test [1] worked out at 0.81 OD; in test [2], 0.2 OD; in test [3] it was 0.16 OD.

B18: HCV 208B-178 (antibody, V domains shown)
VH: DVKLVESGGGLVKLGGSLKLSCAASGFTFSSYYMSWVRQTPEKRLELVAAINSNGGSTYYPDTVKGRFTISRDNAKNTLYLQMSSLKSEDTALYYCARHGGLGRRDWYFDVWGAGTTVTVSS
VL: DIVLTQSPASLAVSLGQRATISCRASESVDNYGISFMHWYQQKPGQPPKLLIYRASNLESGIPARFSGSGSRTDFTLTINPVETDDVATYYCQQSNKDPFTFGSGAKLEIKR
In the case of B18, the Reactivity (OD492) came out at 0.1 OD in test [1], 0.07 OD in test [2] and 1.69 OD in test [3].
